± gives the uncertainty stated by the source.

The nature of this data set: abundance fitness (aPCA) (normalised: wild type 0, dead -1); higher = more abundant; growth selection in yeast, the domain comes from the species named. The following applies: Homo sapiens.
With “NEDD4-like E3 ubiquitin-protein ligase WWP2 G486L, O00308”, the abundance fitness was -0.066 ± 0.042.
For the substance “NEDD4-like E3 ubiquitin-protein ligase WWP2 G486M, O00308”, the abundance fitness is -0.01 ± 0.036.
“NEDD4-like E3 ubiquitin-protein ligase WWP2 G486N, O00308” had an abundance fitness of -0.177 ± 0.12.
In turn, “NEDD4-like E3 ubiquitin-protein ligase WWP2 G486P, O00308” returned an abundance fitness of 0.013 ± 0.049.
In turn, “NEDD4-like E3 ubiquitin-protein ligase WWP2 G486Q, O00308” showed an abundance fitness of -0.023 ± 0.054.
The substance “NEDD4-like E3 ubiquitin-protein ligase WWP2 G486R, O00308” gave an abundance fitness of -0.028 ± 0.037.
Consider “NEDD4-like E3 ubiquitin-protein ligase WWP2 G486S, O00308”, for which the abundance fitness is -0.041 ± 0.049.
In turn, “NEDD4-like E3 ubiquitin-protein ligase WWP2 G486V, O00308” gave an abundance fitness of -0.01 ± 0.043.
Regarding “NEDD4-like E3 ubiquitin-protein ligase WWP2 G486W, O00308”, the abundance fitness is -0.187 ± 0.049.
As for “NEDD4-like E3 ubiquitin-protein ligase WWP2 G486Y, O00308”, the figure is -0.239 ± 0.069; as for “NEDD4-like E3 ubiquitin-protein ligase WWP2 G489A, O00308”, -0.007 ± 0.041.
With “NEDD4-like E3 ubiquitin-protein ligase WWP2 G489C, O00308” the figure was -0.066 ± 0.031; with “NEDD4-like E3 ubiquitin-protein ligase WWP2 G489D, O00308”, -0.02 ± 0.053; with “NEDD4-like E3 ubiquitin-protein ligase WWP2 G489E, O00308”, 0.04 ± 0.049.
With “NEDD4-like E3 ubiquitin-protein ligase WWP2 G489F, O00308” the figure was -0.028 ± 0.078; with “NEDD4-like E3 ubiquitin-protein ligase WWP2 G489H, O00308”, -0.155 ± 0.078; with “NEDD4-like E3 ubiquitin-protein ligase WWP2 G489I, O00308”, -0.035 ± 0.078.
“NEDD4-like E3 ubiquitin-protein ligase WWP2 G489K, O00308” came in with an abundance fitness of 0.001 ± 0.069.
As for “NEDD4-like E3 ubiquitin-protein ligase WWP2 G489L, O00308”, the figure is -0.039 ± 0.055; as for “NEDD4-like E3 ubiquitin-protein ligase WWP2 G489M, O00308”, -0.048 ± 0.07; as for “NEDD4-like E3 ubiquitin-protein ligase WWP2 G489N, O00308”, -0.008 ± 0.033.
The substance “NEDD4-like E3 ubiquitin-protein ligase WWP2 G489P, O00308” had an abundance fitness of -0.049 ± 0.041.
As to “NEDD4-like E3 ubiquitin-protein ligase WWP2 G489Q, O00308”, the abundance fitness is -0.157 ± 0.077.
“NEDD4-like E3 ubiquitin-protein ligase WWP2 G489R, O00308” had an abundance fitness of -0.035 ± 0.036.
In the case of “NEDD4-like E3 ubiquitin-protein ligase WWP2 G489S, O00308”, the abundance fitness was 0.039 ± 0.05.
With “NEDD4-like E3 ubiquitin-protein ligase WWP2 G489T, O00308”, the abundance fitness is 0.002 ± 0.066.
The substance “NEDD4-like E3 ubiquitin-protein ligase WWP2 G489V, O00308” gave an abundance fitness of -0.031 ± 0.048.
Take “NEDD4-like E3 ubiquitin-protein ligase WWP2 G489W, O00308”: the abundance fitness is -0.163 ± 0.057.
As for “NEDD4-like E3 ubiquitin-protein ligase WWP2 G489Y, O00308”, the figure is -0.334 ± 0.087.
As for “NEDD4-like E3 ubiquitin-protein ligase WWP2 H465A, O00308”, the abundance fitness was -0.378 ± 0.05.
On to “NEDD4-like E3 ubiquitin-protein ligase WWP2 H465C, O00308”, for which the abundance fitness was -0.411 ± 0.067.
“NEDD4-like E3 ubiquitin-protein ligase WWP2 H465D, O00308” displayed an abundance fitness of -0.461 ± 0.06.
With “NEDD4-like E3 ubiquitin-protein ligase WWP2 H465E, O00308”, the abundance fitness was -0.396 ± 0.062.
With “NEDD4-like E3 ubiquitin-protein ligase WWP2 H465I, O00308” the figure was -0.207 ± 0.08.
“NEDD4-like E3 ubiquitin-protein ligase WWP2 H465K, O00308” had an abundance fitness of -0.216 ± 0.064.
As for “NEDD4-like E3 ubiquitin-protein ligase WWP2 H465L, O00308”, the figure is -0.315 ± 0.045.
For “NEDD4-like E3 ubiquitin-protein ligase WWP2 H465M, O00308”, the abundance fitness is -0.357 ± 0.072.
Regarding “NEDD4-like E3 ubiquitin-protein ligase WWP2 H465N, O00308”, the abundance fitness is -0.208 ± 0.086.
Substance “NEDD4-like E3 ubiquitin-protein ligase WWP2 H465P, O00308” yielded an abundance fitness of -0.556 ± 0.088.
Take “NEDD4-like E3 ubiquitin-protein ligase WWP2 H465Q, O00308”: the abundance fitness is -0.332 ± 0.042.
With “NEDD4-like E3 ubiquitin-protein ligase WWP2 H465R, O00308” the figure was -0.278 ± 0.036; with “NEDD4-like E3 ubiquitin-protein ligase WWP2 H465S, O00308”, -0.247 ± 0.034; with “NEDD4-like E3 ubiquitin-protein ligase WWP2 H465T, O00308”, -0.292 ± 0.061.
For “NEDD4-like E3 ubiquitin-protein ligase WWP2 H465V, O00308”, the abundance fitness is -0.357 ± 0.05.
“NEDD4-like E3 ubiquitin-protein ligase WWP2 H465W, O00308” came in with an abundance fitness of -0.422 ± 0.042.
With “NEDD4-like E3 ubiquitin-protein ligase WWP2 H465Y, O00308” the figure was -0.386 ± 0.064; with “NEDD4-like E3 ubiquitin-protein ligase WWP2 I441A, O00308”, -0.113 ± 0.053; with “NEDD4-like E3 ubiquitin-protein ligase WWP2 I441C, O00308”, -0.166 ± 0.078.
Substance “NEDD4-like E3 ubiquitin-protein ligase WWP2 I441D, O00308” gave an abundance fitness of -0.419 ± 0.14.
“NEDD4-like E3 ubiquitin-protein ligase WWP2 I441F, O00308” came in with an abundance fitness of -0.13 ± 0.059.
As to “NEDD4-like E3 ubiquitin-protein ligase WWP2 I441H, O00308”, the abundance fitness was -0.204 ± 0.065.
With “NEDD4-like E3 ubiquitin-protein ligase WWP2 I441K, O00308” the figure was 0.052 ± 0.04.
Consider “NEDD4-like E3 ubiquitin-protein ligase WWP2 I441L, O00308”, for which the abundance fitness is -0.198 ± 0.054.
The substance “NEDD4-like E3 ubiquitin-protein ligase WWP2 I441N, O00308” displayed an abundance fitness of 0.137 ± 0.071.
As for “NEDD4-like E3 ubiquitin-protein ligase WWP2 I441P, O00308”, the figure is -0.503 ± 0.083; as for “NEDD4-like E3 ubiquitin-protein ligase WWP2 I441Q, O00308”, -0.035 ± 0.068; as for “NEDD4-like E3 ubiquitin-protein ligase WWP2 I441S, O00308”, -0.123 ± 0.044.
As for “NEDD4-like E3 ubiquitin-protein ligase WWP2 I441T, O00308”, the figure is 0.009 ± 0.04; as for “NEDD4-like E3 ubiquitin-protein ligase WWP2 I441V, O00308”, -0.14 ± 0.048; as for “NEDD4-like E3 ubiquitin-protein ligase WWP2 I441W, O00308”, -0.297 ± 0.067.
As to “NEDD4-like E3 ubiquitin-protein ligase WWP2 I441Y, O00308”, the abundance fitness is -0.33 ± 0.11.
Take “NEDD4-like E3 ubiquitin-protein ligase WWP2 K453A, O00308”: the abundance fitness came out at 0.037 ± 0.046.
On to “NEDD4-like E3 ubiquitin-protein ligase WWP2 K453C, O00308”, for which the abundance fitness is -0.226 ± 0.079.
In the case of “NEDD4-like E3 ubiquitin-protein ligase WWP2 K453D, O00308”, the abundance fitness is -0.029 ± 0.067.
With “NEDD4-like E3 ubiquitin-protein ligase WWP2 K453E, O00308” the figure was -0.23 ± 0.058; with “NEDD4-like E3 ubiquitin-protein ligase WWP2 K453F, O00308”, -0.006 ± 0.075.
“NEDD4-like E3 ubiquitin-protein ligase WWP2 K453G, O00308” had an abundance fitness of -0.328 ± 0.052.
With “NEDD4-like E3 ubiquitin-protein ligase WWP2 K453H, O00308” the figure was -0.137 ± 0.047.
In turn, “NEDD4-like E3 ubiquitin-protein ligase WWP2 K453I, O00308” yielded an abundance fitness of -0.167 ± 0.053.
For “NEDD4-like E3 ubiquitin-protein ligase WWP2 K453L, O00308”, the abundance fitness came out at 0.034 ± 0.038.
Consider “NEDD4-like E3 ubiquitin-protein ligase WWP2 K453M, O00308”, for which the abundance fitness is -0.006 ± 0.05.
For the substance “NEDD4-like E3 ubiquitin-protein ligase WWP2 K453N, O00308”, the abundance fitness was -0.316 ± 0.063.
In turn, “NEDD4-like E3 ubiquitin-protein ligase WWP2 K453P, O00308” displayed an abundance fitness of -1.01 ± 0.12.
In turn, “NEDD4-like E3 ubiquitin-protein ligase WWP2 K453R, O00308” yielded an abundance fitness of -0.043 ± 0.045.
As for “NEDD4-like E3 ubiquitin-protein ligase WWP2 K453S, O00308”, the abundance fitness is -0.183 ± 0.042.
As for “NEDD4-like E3 ubiquitin-protein ligase WWP2 K453T, O00308”, the figure is -0.128 ± 0.056.
Take “NEDD4-like E3 ubiquitin-protein ligase WWP2 K453V, O00308”: the abundance fitness was -0.063 ± 0.05.
With “NEDD4-like E3 ubiquitin-protein ligase WWP2 K453W, O00308” the figure was -0.013 ± 0.059.
“NEDD4-like E3 ubiquitin-protein ligase WWP2 K453Y, O00308” gave an abundance fitness of -0.153 ± 0.042.
